{
  "source": "patent US20240285573A1",
  "about": "“PHARMACEUTICAL COMPOSITION FOR PREVENTING OR TREATING DIABETIC EYE DISEASE COMPRISING SGLT-2 INHIBITOR” (priority 2021, published 2024)",
  "molecules": {"B1": {"name": "Ranibizumab (antibody, chains of the INN, looked up, V domains shown)", "VH": "EVQLVESGGGLVQPGGSLRLSCAASGYDFTHYGMNWVRQAPGKGLEWVGWINTYTGEPTYAADFKRRFTFSLDTSKSTAYLQMNSLRAEDTAVYYCAKYPYYYGTSHWYFDVWGQGTLVTVSS", "VL": "DIQLTQSPSSLSASVGDRVTITCSASQDISNYLNWYQQKPGKAPKVLIYFTSSLHSGVPSRFSGSGSGTDFTLTISSLQPEDFATYYCQQYSTVPWTFGQGTKVEIK", "notes": "LUCENTIS® purchased and administered as a positive control; anti-VEGF monoclonal antibody therapy"}},
  "tested_on": "diabetic retinopathy animal model",
  "experiment": "Retinal fluorescein intensity (fundus imaging) in streptozotocin-induced diabetic retinopathy animal model",
  "type": "in vivo, Brown Norway rats (BN/SsN Slc)",
  "settings": "relative to normal control G1 = 100%, STZ-induced rats, right eye, intravitreal, non-vascular regions of retina",
  "procedure": "Brown Norway rats (BN/SsN Slc) were used. […] Streptozotocin (STZ) was administered to animals determined to be healthy during the acclimation period, and blood sugar levels were measured on day 7 of administration. […] Streptozotocin was intravenously administered once at a dose of 60 mg/kg on the day of induction. G1 is a normal control in which diabetic retinopathy was not induced, G2 is a control in which diabetic retinopathy was induced and to which the vehicle of Comparative Example 1 was administered, and G3 and G4 are groups to which ranibizumab of Comparative Example 2 was administered as a positive control material, and G5 to G9 are groups to which the SGLT-2 inhibitors according to Examples 1 to 5 were administered, respectively. For intravitreal injection, animals were anesthetized, and a syringe with a 31-gauge needle was used to perform intravitreal injections into the right eye of the respective animals. The test material was administered as a single dose on the day of administration. The injection volume was either 1 μL/eye or 5 μL/eye. […] Retinal examination and efficacy were assessed using retinal fluorescent fundus photographs. […] The relative levels (%) of the measured values for each individual were analyzed, with the average value of the normal control group (G1) as the reference (100%), and comparisons were made between the groups. […]",
  "data": [
    {"molecule": "B1", "values": [
      {"measurement": "Fluorescence intensity on 21st day", "setting": "10 μg/eye, 1 μL/eye, once (G4)", "result": 128.359, "unit": "%"},
      {"measurement": "Fluorescence intensity on 21st day", "setting": "50 μg/eye, 5 μL/eye, once (G3)", "result": "125.586 ± 14.799", "unit": "%"}
    ]}
  ]
}
